Source: paper doi:10.1101/2025.01.13.632879 (bioRxiv, 2025)

Molecular target: the molecule itself
Assay: SEC; affinity-purified protein alone; Superdex 200 Increase 10/300 GL, 100 uL of 10 mg/mL, 0.2 mL/min; 200 mM NaCl, 10 mM Tris HCl pH 7.5, 5% glycerol, 1 mM DTT; monomer and dimer peaks

B1: Escherichia coli LolA P65T (natural protein, UniProt P61316 22-203, looked up)
chain: DAASDLKSRLDKVSSFHASFTQKVTDGSGAAVQEGQGDLWVKRTNLFNWHMTQPDESILVSDGKTLWFYNPFVEQATATWLKDATGNTPFMLIARNQSSDWQQYNIKQNGDDFVLTPKASNGNLKQFTINVGRDGTIHQFSAVEQDDQRSSYQLKSQQNGAVDAAKFTFTPPQGVTVDDQRK
notes: LolA of Escherichia coli; source: E. coli BL21(DE3), purified (Ni-NTA, SEC)
stoichiometry N: 2
